T1: mouse LAG3 expressed on HEK293A cells (mouse, UniProt Q61790 24-521)
T1 construct: whole, on cells; also called HEK293A/mouse LAG3
T1 sequence (looked up): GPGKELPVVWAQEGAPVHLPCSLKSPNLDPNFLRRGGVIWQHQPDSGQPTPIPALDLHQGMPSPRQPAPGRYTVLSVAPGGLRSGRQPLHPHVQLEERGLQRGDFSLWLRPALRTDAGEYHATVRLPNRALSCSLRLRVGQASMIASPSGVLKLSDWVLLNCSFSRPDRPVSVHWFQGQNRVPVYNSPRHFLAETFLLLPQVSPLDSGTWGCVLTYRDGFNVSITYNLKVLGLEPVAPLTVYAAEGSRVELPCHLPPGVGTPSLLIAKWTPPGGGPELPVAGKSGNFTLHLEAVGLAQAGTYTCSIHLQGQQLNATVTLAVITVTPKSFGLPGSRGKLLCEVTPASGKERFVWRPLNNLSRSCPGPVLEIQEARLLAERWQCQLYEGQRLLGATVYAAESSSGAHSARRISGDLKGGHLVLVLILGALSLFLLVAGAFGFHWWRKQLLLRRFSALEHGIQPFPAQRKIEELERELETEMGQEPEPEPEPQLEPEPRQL

T2: recombinant human LAG3(ECD)-his (Sino Biological, Cat #: 16498-H08H) (human, UniProt P18627 23-450)
T2 construct: extracellular domain; Bought protein; not shown: his tag
T2 sequence (looked up): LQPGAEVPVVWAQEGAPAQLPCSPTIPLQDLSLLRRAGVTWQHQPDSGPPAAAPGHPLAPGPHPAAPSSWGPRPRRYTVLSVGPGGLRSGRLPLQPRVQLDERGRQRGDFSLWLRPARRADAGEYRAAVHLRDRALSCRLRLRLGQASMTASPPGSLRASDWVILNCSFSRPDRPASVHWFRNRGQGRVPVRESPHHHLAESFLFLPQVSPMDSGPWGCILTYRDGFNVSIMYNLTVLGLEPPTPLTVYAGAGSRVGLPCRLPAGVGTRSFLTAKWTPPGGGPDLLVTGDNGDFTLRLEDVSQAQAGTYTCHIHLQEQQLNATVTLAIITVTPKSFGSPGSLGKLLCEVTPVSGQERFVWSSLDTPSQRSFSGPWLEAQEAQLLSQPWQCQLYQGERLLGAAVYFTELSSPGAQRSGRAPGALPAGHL

T3: recombinant monkey LAG3(ECD)-hFc (ACRO, Cat #: LA3-05252) (monkey (rhesus), UniProt A0A5F8A874 23-450)
T3 construct: Bought protein; also called rhesus LAG3(ECD)-hFc; rh LAG3(ECD)-hFc; not shown: human Fc (hFc) and any linker
T3 sequence: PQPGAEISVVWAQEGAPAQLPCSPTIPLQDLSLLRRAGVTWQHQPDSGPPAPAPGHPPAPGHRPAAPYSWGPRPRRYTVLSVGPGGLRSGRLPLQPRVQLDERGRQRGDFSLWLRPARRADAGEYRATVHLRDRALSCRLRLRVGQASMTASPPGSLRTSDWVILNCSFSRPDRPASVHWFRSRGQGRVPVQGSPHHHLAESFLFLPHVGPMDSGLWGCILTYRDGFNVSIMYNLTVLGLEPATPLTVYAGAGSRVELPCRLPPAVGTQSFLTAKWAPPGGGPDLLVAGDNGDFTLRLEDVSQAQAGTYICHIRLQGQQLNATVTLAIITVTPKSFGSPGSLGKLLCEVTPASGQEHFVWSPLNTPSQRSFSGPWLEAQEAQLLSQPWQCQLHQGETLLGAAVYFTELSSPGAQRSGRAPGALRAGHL

T4: hLAG-3-hIg fusion protein (human LAG-3 extracellular domain fused to human Fc); Sino Biological, Cat #: … (human, UniProt P18627 23-450)
T4 construct: extracellular domain; Bought protein; also called LAG3 fusion protein; human LAG3(ECD)-hFc; not shown: human Fc
T4 sequence (looked up): T2 sequence (looked up)

B1: mouse anti-LAG3 monoclonal antibody 101F4 (antibody, V domains shown)
VH: EVQLEQSGAELVRPGASVTLSCKASGYTFTDYEMHWVKQTPVYGLEWMGAIDPETGGIVYNQRFKGKAILTADKSSSTAYMELRSLTSEDSAVYYCTGAGWGYWGQGTTLTVSS
VL: DIVITQSPSSMYASLGERVTITCKASQDINSYLSWFQQKPGKSPKTLIYRANRLLDGVPSRFSGSGSGQDYSLTISSLEFEDMGLYYCLQYDEFPFTFGSGTKLEIK
B2: mouse anti-LAG3 monoclonal antibody 134G10 (antibody, V domains shown)
VH: EVQLVESGGDLVKPGGSLKLSCAASGFTFSSFGMSWVRQTPDKRLEWVGIISSGGTYTFYPDILKGRFTISRDNAKNTLYLQMSSLKSEDTAMYYCARVYSDYDGRFDYWGQGTTLTVSS
VL: DIVMTQSPSSLSVSAGEKVTMNCKSSQSLLNSGNQKNYLAWYQQKPGQPPKLLIYGASTRESGVPDRFTGSGSGTDFTLTISSVQAEDLAVYYCQNDHSYPLTFGAGTKLELK

Columns and labels:
[1] = molecular target: T1, mouse LAG3 expressed on HEK293A cells; assay: FACS on HEK293A/mouse LAG3 cells
Method: Briefly, 10^5 HEK293A cells in 50 μl PBS buffers were seeded into each well of the 96-well plates and then added with 50 μl of serially diluted anti-LAG3 antibodies (5-fold dilution, starting from 40 μg/ml). After incubated at 4° C. for 1 hour, plates were washed 3 times with PBST. Then, an APC coupled Goat Anti-Mouse IgG (BioLegend, US, Cat #: 405308) diluted 500× was added to the plates. After incubation at 4° C. for 1 hour, the plates were washed with PBS for 3 times and then cell fluorescence was monitored using a FACS machine (BD).

[2] = molecular target: T2, recombinant human LAG3(ECD)-his (Sino …); assay: ELISA, coated human LAG3(ECD)-his
Method: The wells were blocked with 200 µl of blocking buffer (PBS containing 1% BSA, 1% goat serum, and 0.05% Tween 20) for 2 hours at room temperature, and then 100 µl of serially diluted anti-LAG3 antibodies (starting from 40 µg/ml) were added to each well and incubated for 1 hour at RT. Plates were washed for 3 times with PBST (PBS+0.05% Tween 20), added with Goat-anti-mouse IgG-HRP (Sigma, US, Cat #: A9309-1 ml) diluted 5000×, and incubated for 1 hour at RT. Plates were developed with freshly prepared Ultra-TMB (BD, US, Cat #:555214) for 5 minutes at RT. Absorbance was read on a SpectraMaxR i3X (Molecular Devies, US) at 450 nm.

[3] = molecular target: T3, recombinant monkey LAG3(ECD)-hFc (ACRO, …); assay: ELISA, coated monkey LAG3(ECD)-hFc
Method: Species-cross-reactivity of the 12 LAG3 mAbs to monkey or mouse LAG3 was further tested by direct ELISA. Briefly, 50 µl of 500 ng/ml monkey LAG3(ECD)-hFc (ACRO, CN, Cat #: LA3-05252) or mouse LAG3-his (Sino Biological, CN, Cat #:53069-M08H) was coated on 96-well ELISA plates followed by incubation with 100 µl of serially diluted anti-LAG3 antibodies (starting from 40 µg/ml). Goat anti-mouse IgG conjugated with HRP (Sigma, US, Cat #: A9309-1 ml) was added then.

[4] = molecular target: T4, hLAG-3-hIg fusion protein (human LAG-3 …); assay: FACS blocking assay; antibody titrated against 10 µg/ml hLAG-3-hIg binding to MHC II on Daudi cells
Method: The mixtures were then added and incubated with 2 ×10^5 Daudi cells in 100 μl PBS buffer at 4° C. for 30 minutes. The cells were pelleted (three minutes, 400×g), washed twice with 1×PBS buffer and repelleted, and added and incubated with a recombinant PE-labeled F(ab')2 anti-hIgG Fc (1:200, Life Technologies, USA, Cat #: H10104) at 4° C. for 30 minutes, and washed once with 1×PBS. Analysis of […] binding was carried out with the FACS flow cytometer (BD Bioscience).

| Binder | binding result [1] | EC50 [2] | EC50 [3] | EC50 [4] |
| --- | --- | --- | --- | --- |
| B1 | no binding (tested: starting from 40 µg/ml) | 4 nM | 2.3 nM | 13 nM |
| B2 | no binding (tested: starting from 40 µg/ml) | 1.92 nM | 0.23 nM | 9.3 nM |

Reference: US10946092 (BEIJING MABWORKS BIOTECH, dated 2021)
